Data from patent publication US12329806B2, “Compound for modulating rlr, tlr, oas and/or oncostatin m pathways, use thereof for preparing a medicine, composition, method for modulating said pathways and method of treatment” (Instituto Butantan, priority 2018, dated 2025).

System: Equine melanoma tumors
Assay: RNA-Seq transcriptomic analysis (DEGs, EdgeR) of treated equine melanoma tumors excised 6 h and 12 h after injection
Assay type: in vivo, Equus caballus
Conditions: for SELE expression, average / SELE expression, median: RNA-Seq
Method: Equine melanoma tumors were used in experiments with the administration of the compound of the invention, for transcriptomic analysis at different points in time. This translational experiment was carried out at Sao Joaquim Farm (SP) and the samples were transported to the Instituto Butantan, in the city of Sao Paulo. The experiment was designed with non-treated control samples at 0 h (PBS) and the treated tumors were excised 6 h and 12 h after the injection of 1 mg of polypeptide per kg of tumor. For each time point, two tumors were removed from three different animals, producing six tumors per time point. All 18 cDNA libraries were prepared following Illumina's TruSeq® RNA Preparation Kit Kits v2 protocol, and then sequenced using HiSeq 1500 Illumina technology, generating 2×100 bp chain-specific paired readings. The raw sequencing readings had the contaminants removed with bowtie2 2.2.5, and then trimmomatic was used for quality control of the sequences, to cut and remove readings with regions of low complexity and enriched with homopolymers, poly-A/T/N tails, low quality adapter strings and bases, with the fastq-mcf 1.04.662 software. The readings were filtered if more than 90% of the readings correspond to regions of homopolymer or of low complexity. Subsequently, cut if the average quality score was less than 25 in a window size equal to 15. After cutting, all readings less than 40 bp were discarded.
Total RNA was isolated from cells grown with Trizol (Ambion, Life Technologies) and purified with a Mini RNAspin kit (GE Healthcare) according to the manufacturer's instructions, with prolonged treatment with DNase I for 1 h.
RNA quality was assessed with an Agilent 2100 Bioanalyzer RNA Pico assay. RNA was quantified using the Rib-Green Quant-iT and RNA reagent kit (Invitrogen, Life Technologies). The messenger RNA (mRNA) was isolated and used to prepare the complementary DNA (cDNA) libraries following the instructions of the TruSeq RNA Sample Prep Kit V2 (Illumina, San Diego, Calif.). Briefly, the mRNA was isolated with oligo-dT and purified. Then, the mRNA was fragmented by heating to 94° C. (4 min) in fragmentation buffer. The double-stranded cDNA was synthesized, repaired at the end and tail A. The sequencing adapters were then attached to the cDNA fragments, according to the manufacturer's protocol. The cDNA fragments were enriched after 15 rounds of PCR amplification. The quality control of the library was assessed by size distribution of the cDNA libraries measured using 2100 Bioanalyzer with DNA1000 assay (Agilent Technologies) and a StepOnePlus real-time PCR system from ABI were used to quantify the sample library before sequencing. The cDNA library was sequenced on the Illumina HiSeq 1500 System, in a final flow cell paired with Rapid in a 200 pair strategy of 2-101 bp pairing strategy.
The in-silico analysis of RNA-Seq comprises several quality steps and transcriptomic quantification algorithms that are understood in the present invention as “pipeline”. (FIG. 19). The quality check was performed using FastQC3. Hisat214 was used to align readings against the horse's reference genome (Equus caballus) (annotation version 89). To map and quantify transcriptions, the feature Counts was used, resulting in a table of genetic IDs versus samples with raw reading counts. Then, differentially expressed genes (DEGs) were calculated using the EdgeR package. Genes with less than one count per million (CPM) were filtered out. The DEGs were calculated by crossing the sample values of a) 6 h after treatment (6 h)×control (0 h); b) 12 h after treatment (12 h)×control; and also, c) 12 h×6 h. DEGs are defined as an absolute value of log 2 fold change between two groups (LFC)>1 and false discovery rate (FDR)<0.05. […]

[1] = RNA-seq median expression, 12 h

B1: Amblyomin-X: recombinant Kunitz type protein identified in a cDNA library of Amblyomma sculptum tick salivary glands (protein)
chain: MRQLAVLALVIFTGMCVESQSANSKAVCNLPKLAGDETCSNKTEIRWYYNGTACEAFIFKGCGGNDNNFDRVDDCQRLCEEQTHFHFESPKLICFKVQDYWILNDIMKKNLTGISLKSEEEDADSGEID
modifications: Amblyomin-X
notes: recombinant Kunitz type protein identified in a cDNA library of Amblyomma sculptum tick salivary glands
6 h after treatment
  SELE expression, average: 7.15 CPM
  SELE expression, median: 4.56 CPM
12 h after treatment
  SELE expression, average: 4.85 CPM
  SELE expression, median: 5.63 CPM
RNA-seq median expression, 6 h
  median2, gene ACTN1: 153.3001 CPM
  median2, gene BCL3: 46.57 CPM
  median2, gene BIRC3: 47.3192 CPM
  median2, gene CAD: 52.82 CPM
  median2, gene CCL2: 171.527 CPM
  median2, gene CDO1: 22.45 CPM
  median2, gene CTSL: 34.0817 CPM
  median2, gene CXCL6: 6.189 CPM
  median2, gene DDX58: 22.55 CPM
  median2, gene F12: 4.891 CPM
  median2, gene FOSL1: 14.18 CPM
  median2, gene FSCN1: 97.19 CPM
  median2, gene HMOX1: 99.11 CPM
  median2, gene HSPA6: 15.93 CPM
  median2, gene IFI35: 48.07 CPM
  median2, gene IFIH1: 13.29 CPM
  median2, gene IFIT1: 28.13 CPM
  median2, gene IL1B: 20.23 CPM
  median2, gene IL1RN: 120.3935 CPM
  median2, gene IL13RA1: 29.3 CPM
  median2, gene IRF9: 72.39 CPM
  median2, gene ITGA1: 7.06 CPM
  median2, gene MYH1: 0 CPM
  median2, gene MYH3: 1.418 CPM
  median2, gene MYL2: 0 CPM
  median2, gene MYLPF: 1.314 CPM
  median2, gene NTNG1: 1.059 CPM
  median2, gene OAS2: 34.26 CPM
  median2, gene PARP9: 16.34 CPM
  median2, gene PER1: 32.08 CPM
  median2, gene PIK3R6: 5.162 CPM
  median2, gene RUNX1: 8.949 CPM
  median2, gene SAA1: 7.68 CPM
  median2, gene SELP: 22.34 CPM
  median2, gene SLPI: 230.2294 CPM
  median2, gene SOCS3: 12.21 CPM
  median2, gene STAT1: 76.48 CPM
  median2, gene TAT: 1.235 CPM
  median2, gene TEAD4: 21.64 CPM
  median2, gene THBS1: 43.5 CPM
  median2, gene TLR2: 59.58 CPM
  median2, gene TREM1: 31.36 CPM
[1]
  median3, gene ACTN1: 165.3412 CPM
  median3, gene BCL3: 39.97 CPM
  median3, gene BIRC3: 47.38 CPM
  median3, gene CAD: 50.34 CPM
  median3, gene CCL2: 418.8519 CPM
  median3, gene CDO1: 12.71 CPM
  median3, gene CTSL: 33.8889 CPM
  median3, gene CXCL6: 1.108 CPM
  median3, gene DDX58: 31.9 CPM
  median3, gene F12: 8.671 CPM
  median3, gene FOSL1: 11.46 CPM
  median3, gene FSCN1: 152.3466 CPM
  median3, gene HMOX1: 105.6427 CPM
  median3, gene HSPA6: 53.79 CPM
  median3, gene IFI35: 66.19 CPM
  median3, gene IFIH1: 27.95 CPM
  median3, gene IFIT1: 34.11 CPM
  median3, gene IL1B: 10.07 CPM
  median3, gene IL1RN: 118.3058 CPM
  median3, gene IL13RA1: 23.98 CPM
  median3, gene IRF9: 85.24 CPM
  median3, gene ITGA1: 6.155 CPM
  median3, gene MYH1: 0 CPM
  median3, gene MYH3: 1.817 CPM
  median3, gene MYL2: 0 CPM
  median3, gene MYLPF: 1.629 CPM
  median3, gene NTNG1: 0.744 CPM
  median3, gene OAS2: 82.84 CPM
  median3, gene PARP9: 18.56 CPM
  median3, gene PER1: 39.99 CPM
  median3, gene PIK3R6: 4.433 CPM
  median3, gene RUNX1: 9.266 CPM
  median3, gene SAA1: 11.7 CPM
  median3, gene SELP: 20.58 CPM
  median3, gene SLPI: 620.7695 CPM
  median3, gene SOCS3: 11.57 CPM
  median3, gene STAT1: 83.64 CPM
  median3, gene TAT: 9.52 CPM
  median3, gene TEAD4: 39.12 CPM
  median3, gene THBS1: 31.32 CPM
  median3, gene TLR2: 93.64 CPM
  median3, gene TREM1: 24.25 CPM
RNA-seq, 6 h after treatment
  logFC6, gene ACTN1: 1.003
  logFC6, gene BCL3: 1.936
  logFC6, gene BIRC3: 1.275
  logFC6, gene CAD: 1.227
  logFC6, gene CCL2: 2.79
  logFC6, gene CDO1: −1.785
  logFC6, gene CTSL: 1.376
  logFC6, gene CXCL6: 5.945
  logFC6, gene DDX58: 1.434
  logFC6, gene F12: 2.559
  logFC6, gene FOSL1: 4.578
  logFC6, gene FSCN1: 1.457
  logFC6, gene HMOX1: 1.443
  logFC6, gene HSPA6: 5.376
  logFC6, gene IFI35: 1.513
